Measurements taken from the supplement of paper PMC10567573.

B1: OAS1 (parent)
chain: TPAKSLDKFIEDYLLPDTCFRMQI

Variants of: B1
Experiment: protein stability index of a GFP-peptide fusion (GPS, HEK-293T) (PSI 1-6); higher = more stable
Details: c terminus: a fixed tail appended
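Also: lentivirally expressed fusions sorted by FACS into six bins by GFP to DsRed ratio, PSI derived from sequencing read proportions per bin multiplied by bin number.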

Variant | protein stability index
TPAKSLDKFIEDYLLPTTCFRMQI | 2.03
TPAKSLDKFIEDYLLPKTCFRMQI | 2.51
TPAKSLDKFIEDYLLPYTCFRMQI | 2.32
TPAKSLDKFIEDYLLPSTCFRMQI | 2.79
TPAKSLDKFIEDYLLPLTCFRMQI | 3.49
TPAKSLDKFIEDYLLPRTCFRMQI | 2.98
TPAKSLDKFIEDYLLPFTCFRMQI | 3.31
TPAKSLDKFIEDYLLPGTCFRMQI | 3.94
TPAKSLDKFIEDYLLPNTCFRMQI | 1.77
TPAKSLDKFIEDYLLPMTCFRMQI | 2.99
TPAKSLDKFIEDYLLPQTCFRMQI | 1.88
TPAKSLDKFIEDYLLPPTCFRMQI | 3.25
TPAKSLDKFIEDYLLPATCFRMQI | 2.9
TPAKSLDKFIEDYLLPETCFRMQI | 2.69
TPAKSLDKFIEDYLLPHTCFRMQI | 2.43
TPAKSLDKFIEDYLLPDTYFRMQI | 3.22
TPAKSLDKFIEDYLLPDTKFRMQI | 1.59
TPAKSLDKFIEDYLLPDTDFRMQI | 1.62
TPAKSLDKFIEDYLLPDTFFRMQI | 2.51
TPAKSLDKFIEDYLLPDTRFRMQI | 3.1
TPAKSLDKFIEDYLLPDTVFRMQI | 3.28
TPAKSLDKFIEDYLLPDTPFRMQI | 2.68
TPAKSLDKFIEDYLLPDTIFRMQI | 4.78
TPAKSLDKFIEDYLLPDTLFRMQI | 2.02

Variant | protein stability index
TPAKSLDKFIEDYLLPDTGFRMQI | 2.44
TPAKSLDKFIEDYLLPDTWFRMQI | 3.2
TPAKSLDKFIEDYLLPDTTFRMQI | 2.24
TPAKSLDKFIEDYLLPDTQFRMQI | 2.3
TPAKSLDKFIEDYLLPDTAFRMQI | 2.88
TPAKSLDKFIEDYLLPDTHFRMQI | 2.96
TPAKSLDKFIEDYLLPDTNFRMQI | 3.42
TPAKSLDKFIEDYLLPDTEFRMQI | 1.43
TPAKSLDKFIEDYLPPDTCFRMQI | 2.31
TPAKSLDKFIEDYLEPDTCFRMQI | 3.04
TPAKSLDKFIEDYLKPDTCFRMQI | 2.07
TPAKSLDKFIEDYLFPDTCFRMQI | 3.79
TPAKSLDKFIEDYLQPDTCFRMQI | 3.04
TPAKSLDKFIEDYLWPDTCFRMQI | 2.56
TPAKSLDKFIEDYLNPDTCFRMQI | 2.21
TPAKSLDKFIEDYLDPDTCFRMQI | 1.74
TPAKSLDKFIEDYLGPDTCFRMQI | 2.43
TPAKSLDKFIEDYLHPDTCFRMQI | 2.12
TPAKSLDKFIEDYLSPDTCFRMQI | 2.26
TPAKSLDKFIEDYLIPDTCFRMQI | 3.88
TPAKSLDKFIEDYLVPDTCFRMQI | 3.19
TPAKSLDKFIEDYLTPDTCFRMQI | 1.74
TPAKSLDKFIEDYLAPDTCFRMQI | 1.72
TPAKSLDKFIEDYLRPDTCFRMQI | 3.08

Variant | protein stability index
TPAKSLDKFIEDYLLPDTCFPMQI | 1.31
TPAKSLDKFIEDYLLPDTCFTMQI | 3.86
TPAKSLDKFIEDYLLPDTCFYMQI | 2.44
TPAKSLDKFIEDYLLPDTCFVMQI | 3.2
TPAKSLDKFIEDYLLPDTCFLMQI | 3.64
TPAKSLDKFIEDYLLPDTCFWMQI | 1.43
TPAKSLDKFIEDYLLPDTCFHMQI | 3.05
TPAKSLDKFIEDYLLPDTCFGMQI | 2.33
TPAKSLDKFIEDYLLPDTCFQMQI | 3.37
TPAKSLDKFIEDYLLPDTCFFMQI | 2.13
TPAKSLDKFIEDYLLPDTCFKMQI | 2.46
TPAKSLDKFIEDYLLPDTCFIMQI | 2.93
TPAKSLDKFIEDYLLPDTCFMMQI | 2.31
TPAKSLDKFIEDYLLPDTCFDMQI | 1.56
TPAKSLDKFIEDYLLPDTCFAMQI | 3.28
TPAKSLDKFIEDYLLPDTCFSMQI | 3.4
TPAKSLDKFIEDYLLPDTCFNMQI | 2.73
TPAKSLDKFIEDYLLPDDCFRMQI | 3.16
TPAKSLDKFIEDYLLPDECFRMQI | 3.65
TPAKSLDKFIEDYLLPDACFRMQI | 2.25
TPAKSLDKFIEDYLLPDRCFRMQI | 3.05
TPAKSLDKFIEDYLLPDICFRMQI | 2.04
TPAKSLDKFIEDYLLPDPCFRMQI | 1.59
TPAKSLDKFIEDYLLPDNCFRMQI | 2.41

Variant | protein stability index
TPAKSLDKFIEDYLLPDGCFRMQI | 3.04
TPAKSLDKFIEDYLLPDLCFRMQI | 2.42
TPAKSLDKFIEDYLLPDKCFRMQI | 1.83
TPAKSLDKFIEDYLLPDMCFRMQI | 2.36
TPAKSLDKFIEDYLLPDYCFRMQI | 3.93
TPAKSLDKFIEDYLLPDFCFRMQI | 2.45
TPAKSLDKFIEDYLLPDVCFRMQI | 2.23
TPAKSLDKFIEDYLLPDWCFRMQI | 2.58
TPAKSLDKFIEDYLLPDHCFRMQI | 2.22
TPAKSLDKFIEDYLLPDCCFRMQI | 3.48
TPAKSLDKFIEDYLLPDQCFRMQI | 2.89
TPAKSLDKFIEDYHLPDTCFRMQI | 2.62
TPAKSLDKFIEDYTLPDTCFRMQI | 2.05
TPAKSLDKFIEDYYLPDTCFRMQI | 3.1
TPAKSLDKFIEDYFLPDTCFRMQI | 3.94
TPAKSLDKFIEDYILPDTCFRMQI | 2.08
TPAKSLDKFIEDYMLPDTCFRMQI | 3.5
TPAKSLDKFIEDYRLPDTCFRMQI | 1.8
TPAKSLDKFIEDYWLPDTCFRMQI | 2.18
TPAKSLDKFIEDYVLPDTCFRMQI | 2.83
TPAKSLDKFIEDYGLPDTCFRMQI | 2.84
TPAKSLDKFIEDYPLPDTCFRMQI | 2.46
